Laboratory results: patent US20230129812A1, “COMPOSITIONS AND METHODS FOR TREATING PULMONARY HYPERTENSION” (Acceleron Pharma Inc., priority 2020, published 2023)

Key:
[1] = target: GDF8, O14793; assay: SPR (Biacore); receptor-Fc captured by anti-Fc antibody, ligand injected; details: remark: other sources report otherwise
[2] = target: GDF8, O14793; assay: SPR (Biacore); receptor-Fc captured by anti-Fc antibody, ligand injected; † Very low signal; details: remark: other sources report otherwise

Chain of GDF8, O14793 (O14793 267-375 limits assumed): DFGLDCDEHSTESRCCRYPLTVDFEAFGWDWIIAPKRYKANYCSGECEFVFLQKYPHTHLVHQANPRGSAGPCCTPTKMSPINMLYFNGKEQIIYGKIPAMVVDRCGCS

B1: ALK4-Fc homodimer, P36896 24-126 (Fc fusion, not shown: a dimerising Fc or GST)
chain: SGPRGVQALLCACTSCLQANYTCETDGACMVSIFNLDGMEHHVRTCIPKVELVPAGKPFYCLSSEDLRNTHCCYTDYCNRIDLRVPSGHLKEPEHPSMWGPVE
How did the koff [1] turn out when B1 was run?
Its koff is 0.0019 s⁻¹.

What about the kon [1] of the same binder?
The kon was 130000 M⁻¹ s⁻¹.

And the Kd [2]?
Its Kd is 15 nM.
